According to article PMC3161515 (Molecular cell, 2011):

T1: YFP-ΔGL1,2 Pins-CFP fusion protein (Pins FRET biosensor) (Drosophila, UniProt Q9VB22 1-658, R486F | R570F)
T1 sequence (looked up): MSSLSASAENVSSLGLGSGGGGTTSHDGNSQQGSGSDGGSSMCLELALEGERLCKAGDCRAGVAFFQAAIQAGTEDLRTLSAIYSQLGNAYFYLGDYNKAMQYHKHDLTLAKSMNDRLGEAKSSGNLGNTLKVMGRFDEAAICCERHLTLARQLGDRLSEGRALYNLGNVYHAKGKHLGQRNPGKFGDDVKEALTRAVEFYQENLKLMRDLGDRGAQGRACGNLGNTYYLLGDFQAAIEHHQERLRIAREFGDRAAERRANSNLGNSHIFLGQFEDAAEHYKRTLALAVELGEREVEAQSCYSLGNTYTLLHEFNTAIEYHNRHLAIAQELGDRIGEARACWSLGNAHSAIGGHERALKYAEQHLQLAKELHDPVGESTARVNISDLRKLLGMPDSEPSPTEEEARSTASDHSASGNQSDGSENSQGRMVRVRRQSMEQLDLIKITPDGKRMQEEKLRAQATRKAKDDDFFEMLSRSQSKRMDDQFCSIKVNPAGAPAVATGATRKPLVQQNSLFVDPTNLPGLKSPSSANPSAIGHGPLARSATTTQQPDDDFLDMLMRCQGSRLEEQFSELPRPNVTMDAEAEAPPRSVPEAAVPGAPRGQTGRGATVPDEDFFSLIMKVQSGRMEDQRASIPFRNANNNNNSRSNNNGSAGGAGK


Tests used:
[1] = biological target: tetramethylrhodamine labeled Mud peptide (TMR-Mud) (Drosophila); assay: fluorescence polarisation
[2] = biological target: T1, YFP-ΔGL1,2 Pins-CFP fusion protein …; assay: FRET or BRET

Pins activation (%) [1] [%] | Kd [2] [µM] | Binder
85 |  | ΔGL1,2 Pins (R486F and R570F) (natural protein) MSSLSASAENVSSLGLGSGGGGTTSHDGNSQQGSGSDGGSSMCLELALEGERLCKAGDCRAGVAFFQAAIQAGTEDLRTLSAIYSQLGNAYFYLGDYNKAMQYHKHDLTLAKSMNDRLGEAKSSGNLGNTLKVMGRFDEAAICCERHLTLARQLGDRLSEGRALYNLGNVYHAKGKHLGQRNPGKFGDDVKEALTRAVEFYQENLKLMRDLGDRGAQGRACGNLGNTYYLLGDFQAAIEHHQERLRIAREFGDRAAERRANSNLGNSHIFLGQFEDAAEHYKRTLALAVELGEREVEAQSCYSLGNTYTLLHEFNTAIEYHNRHLAIAQELGDRIGEARACWSLGNAHSAIGGHERALKYAEQHLQLAKELHDPVGESTARVNISDLRKLLGMPDSEPSPTEEEARSTASDHSASGNQSDGSENSQGRMVRVRRQSMEQLDLIKITPDGKRMQEEKLRAQATRKAKDDDFFEMLSRSQSKRMDDQFCSIKVNPAGAPAVATGATRKPLVQQNSLFVDPTNLPGLKSPSSANPSAIGHGPLARSATTTQQPDDDFLDMLMRCQGSRLEEQFSELPRPNVTMDAEAEAPPRSVPEAAVPGAPRGQTGRGATVPDEDFFSLIMKVQSGRMEDQRASIPFRNANNNNNSRSNNNGSAGGAGK
 | 3.4 ± 0.3 | heterotrimeric G-protein alpha subunit Gαi, GDP-loaded (natural protein, UniProt P20353 1-355, looked up) MGCAVSTARDKEAIERSKNIDRALRAEGERAASEVKLLLLGAGESGKSTIVKQMKIIHDTGYSQEECEEYRRVVFSNTVQSLMVIIRAMGRLKIEFADPSRTDIARQFFTHASAADEGILLPEIVLLMKKLWADGGVQQSFARSREYQLNDSAGYYLNSLDRIAQPNYIPTQQDVLRTRVKTTGIIETHFSCKQLHFKLFDVGGQRSERKKWIHCFEGVTAIIFCVALSGYDLVLAEDEEMNRMIESLKLFDSICNSKWFVETSIILFLNKKDLFEEKIKRSPLTICFPEYTGTNTFEEAANYIRMKFENLNKRKDQKEIYTHLTCATDTNNVKFVFDAVTDVIIKNNLKQIGLF
